Source: patent US20230114801A1 (SYSTIMMUNE, published 2023)

T1: CD19 (UniProt P15391 20-291, limits assumed)
T1 sequence (looked up): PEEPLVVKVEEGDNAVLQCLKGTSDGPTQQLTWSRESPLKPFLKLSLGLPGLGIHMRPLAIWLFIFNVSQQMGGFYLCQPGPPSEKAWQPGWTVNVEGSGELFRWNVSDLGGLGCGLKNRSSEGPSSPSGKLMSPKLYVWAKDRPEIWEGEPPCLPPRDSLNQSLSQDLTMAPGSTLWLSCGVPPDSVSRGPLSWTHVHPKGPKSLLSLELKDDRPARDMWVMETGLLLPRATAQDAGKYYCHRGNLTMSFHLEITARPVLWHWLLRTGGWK


What was measured:
[1] = biological target: T1, CD19; assay: BLI (Octet), binder on AHC sensor; antigen conditions not stated
[2] = biological target: T2, human PD-L1 (human, UniProt Q9NZQ7 19-238); assay: as above
T2 construct: Soluble antigen in Octet; bought; also called human PD-L1 (Acro PD1-H5229)

[3] = biological target: T3, human 4-1BB (human, UniProt Q07011 24-186, limits assumed); assay: as above
T3 construct: Soluble antigen in Octet; construct not described

[4] = biological target: T4, human CD3 (human, UniProt P07766 23-126; P04234 22-105); assay: BLI (Octet), binder on AHC sensor, His-tagged human CD3 (series from 200 nM or single 100 nM), 1:1 fit
T4 construct: also called His-tagged human CD3; human CD3 (Acro CDD-H52W1)

Row | Binder | Kd [1] [nM] | Kd [2] [nM] | Kd [3] [nM] | Kd [4] [nM]
1 | SI-68P17 (other, penta-miniGNC; D1 αCD3, D2 αCD19, D3 αEGFR (Fab), D4 α4-1BB, D5 αPD-L1) chain 1: DVVMTQSPSTLSASVGDRVTINCQASESISSWLAWYQQKPGKAPKLLIYEASKLASGVPSRFSGSGSGTEFTLTISSLQPDDFATYYCQGYFYFISRTYVNSFGGGTKVEIKGGGGSGGGGSGGGGSGGGGSEVQLVESGGGLVQPGGSLRLSCAASGFTISTNAMSWVRQAPGKGLEWIGVITGRDITYYASWAKGRFTISRDNSKNTLYLQMNSLRAEDTAVYYCARDGGSSAITSNNIWGQGTLVTVSSGGGGSGGGGSQVQLQQSGPGLVKPSETLSITCTVSGFSLTNYGVHWIRQAPGKGLEWLGVIWSGGNTDYNTPFTSRFTITKDNSKNQVYFKLRSVRADDTAIYYCARALTYYDYEFAYWGQGTLVTVSSASTKGPSVFPLAPSSKSTSGGTAALGCLVKDYFPEPVTVSWNSGALTSGVHTFPAVLQSSGLYSLSSVVTVPSSSLGTQTYICNVNHKPSNTKVDKRVEPKSCDKTHTCPPCPAPEAAGGPSVFLFPPKPKDTLMISRTPEVTCVVVDVSHEDPEVKFNWYVDGVEVHNAKTKPREEQYNSTYRVVSVLTVLHQDWLNGKEYKCAVSNKALPAPIEKTISKAKGQPREPQVYTLPPSRDELTKNQVSLSCAVKGFYPSDIAVEWESNGQPENNYKTTPPVLDSDGSFFLVSKLTVDKSRWQQGNVFSCSVMHEALHNHYTQKSLSLSPGGGGGSGGGGSDVVMTQSPSSVSASVGDRVTITCQASQNIRTYLSWYQQKPGKAPKLLIYAAANLASGVPSRFSGSGSGTDFTLTISDLEPGDAATYYCQSTYLGTDYVGGAFGGGTKLTVLGGGGSGGGGSGGGGSGGGGSEVQLVESGGGLVQPGGSLRLSCTASGFTISSYHMQWVRQAPGKGLEYIGTISSGGNVYYASSARGRFTISRPSSKNTVDLQMNSLRAEDTAVYYCARDSGYSDPMWGQGTLVTVSS chain 2: ENVLTQSPASLSASPGERVTITCSASSSVSYMHWYQQKPGQAPKLWIYDTSKLASGVPSRFSGSGSGNDHTLTISSMEPEDFATYYCFQGSVYPFTFGQGTKVTVLGGGGSGGGGSGGGGSGGGGSQVTLKESGPGLVQPGQTLSLTCAFSGFSLSTSGMGVGWIRQPPGKGLEWLAHIWWDDDKRYNPALKSRLTISKDTSKNQVYLQMNSLDAEDTAVYYCARMELWSYYFDYWGQGTLVTVSSGGGGSGGGGSEIVLTQSPSTLSVSPGERATFSCRASQSIGTNIHWYQQKPGKPPRLLIKYASESISGIPDRFSGSGSGTEFTLTISSVQSEDFAVYYCQQNNNWPTTFGPGTKLTVLRTVAAPSVFIFPPSDEQLKSGTASVVCLLNNFYPREAKVQWKVDNALQSGNSQESVTEQDSKDSTYSLSSTLTLSKADYEKHKVYACEVTHQGLSSPVTKSFNRGECGGDKTHTCPPCPAPEAAGGPSVFLFPPKPKDTLMISRTPEVTCVVVDVSHEDPEVKFNWYVDGVEVHNAKTKPREEQYNSTYRVVSVLTVLHQDWLNGKEYKCAVSNKALPAPIEKTISKAKGQPREPQVYTLPPSRDELTKNQVSLWCLVKGFYPSDIAVEWESNGQPENNYKTTPPVLDSDGSFFLYSKLTVDKSRWQQGNVFSCSVMHEALHNRFTQKSLSLSPGGGGGSGGGGSDIQMTQSPSTLSASVGDRVTITCQASQSISSHLNWYQQKPGKAPKLLIYKASTLASGVPSRFSGSGSGTEFTLTISSLQPDDFATYYCQQGYSWGNVDNVFGGGTKVTVLGGGGSGGGGSGGGGSGGGGSEVQLLESGGGLVQPGGSLSLSCAASGFSFSSGYDMCWVRQAPGKGLEWIACIAAGSAGITYDANWAKGRFTISRDNSKNTLYLQMNSLRAEDTAVYYCARSAFSFDYAMDLWGQGTLVTVSS | 5.05 | 2.72 | 26.8 | 15.8
2 | SI-68P15 (other, penta-miniGNC; D1 αCD3** (humanized framework 1), D2 αCD19, D3 αEGFR (Fab), D4 α4-1BB, D5 αPD-L1) chain 1: EIVMTQSPSTLSASVGDRVIITCQASESISSWLAWYQQKPGKAPKLLIYEASKLASGVPSRFSGSGSGAEFTLTISSLQPDDFATYYCQGYFYFISRTYVNSFGQGTKLTVLGGGGSGGGGSGGGGSGGGGSEVQLVESGGGLVQPGGSLRLSCAASGFTISTNAMSWVRQAPGKGLEWVGVITGRDITYYASWAKGRFTISRDTSKNTVYLQMNSLRAEDTAVYYCARDGGSSAITSNNIWGQGTLVTVSSGGGGSGGGGSQVQLQQSGPGLVKPSETLSITCTVSGFSLTNYGVHWIRQAPGKGLEWLGVIWSGGNTDYNTPFTSRFTITKDNSKNQVYFKLRSVRADDTAIYYCARALTYYDYEFAYWGQGTLVTVSSASTKGPSVFPLAPSSKSTSGGTAALGCLVKDYFPEPVTVSWNSGALTSGVHTFPAVLQSSGLYSLSSVVTVPSSSLGTQTYICNVNHKPSNTKVDKRVEPKSCDKTHTCPPCPAPEAAGGPSVFLFPPKPKDTLMISRTPEVTCVVVDVSHEDPEVKFNWYVDGVEVHNAKTKPREEQYNSTYRVVSVLTVLHQDWLNGKEYKCAVSNKALPAPIEKTISKAKGQPREPQVYTLPPSRDELTKNQVSLSCAVKGFYPSDIAVEWESNGQPENNYKTTPPVLDSDGSFFLVSKLTVDKSRWQQGNVFSCSVMHEALHNHYTQKSLSLSPGGGGGSGGGGSDVVMTQSPSSVSASVGDRVTITCQASQNIRTYLSWYQQKPGKAPKLLIYAAANLASGVPSRFSGSGSGTDFTLTISDLEPGDAATYYCQSTYLGTDYVGGAFGGGTKLTVLGGGGSGGGGSGGGGSGGGGSEVQLVESGGGLVQPGGSLRLSCTASGFTISSYHMQWVRQAPGKGLEYIGTISSGGNVYYASSARGRFTISRPSSKNTVDLQMNSLRAEDTAVYYCARDSGYSDPMWGQGTLVTVSS chain 2: ENVLTQSPASLSASPGERVTITCSASSSVSYMHWYQQKPGQAPKLWIYDTSKLASGVPSRFSGSGSGNDHTLTISSMEPEDFATYYCFQGSVYPFTFGQGTKVTVLGGGGSGGGGSGGGGSGGGGSQVTLKESGPGLVQPGQTLSLTCAFSGFSLSTSGMGVGWIRQPPGKGLEWLAHIWWDDDKRYNPALKSRLTISKDTSKNQVYLQMNSLDAEDTAVYYCARMELWSYYFDYWGQGTLVTVSSGGGGSGGGGSEIVLTQSPSTLSVSPGERATFSCRASQSIGTNIHWYQQKPGKPPRLLIKYASESISGIPDRFSGSGSGTEFTLTISSVQSEDFAVYYCQQNNNWPTTFGPGTKLTVLRTVAAPSVFIFPPSDEQLKSGTASVVCLLNNFYPREAKVQWKVDNALQSGNSQESVTEQDSKDSTYSLSSTLTLSKADYEKHKVYACEVTHQGLSSPVTKSFNRGECGGDKTHTCPPCPAPEAAGGPSVFLFPPKPKDTLMISRTPEVTCVVVDVSHEDPEVKFNWYVDGVEVHNAKTKPREEQYNSTYRVVSVLTVLHQDWLNGKEYKCAVSNKALPAPIEKTISKAKGQPREPQVYTLPPSRDELTKNQVSLWCLVKGFYPSDIAVEWESNGQPENNYKTTPPVLDSDGSFFLYSKLTVDKSRWQQGNVFSCSVMHEALHNRFTQKSLSLSPGGGGGSGGGGSDIQMTQSPSTLSASVGDRVTITCQASQSISSHLNWYQQKPGKAPKLLIYKASTLASGVPSRFSGSGSGTEFTLTISSLQPDDFATYYCQQGYSWGNVDNVFGGGTKVTVLGGGGSGGGGSGGGGSGGGGSEVQLLESGGGLVQPGGSLSLSCAASGFSFSSGYDMCWVRQAPGKGLEWIACIAAGSAGITYDANWAKGRFTISRDNSKNTLYLQMNSLRAEDTAVYYCARSAFSFDYAMDLWGQGTLVTVSS |  | 0.4 | 17.1 | 22.4
3 | SI-68P13 (other, penta-miniGNC; D1 αEGFR, D2 αCD19, D3 αCD3 (Fab), D4 α4-1BB, D5 αPD-L1) chain 1: EIVLTQSPSTLSVSPGERATFSCRASQSIGTNIHWYQQKPGKPPRLLIKYASESISGIPDRFSGSGSGTEFTLTISSVQSEDFAVYYCQQNNNWPTTFGPGTKLTVLGGGGSGGGGSGGGGSGGGGSQVQLQQSGPGLVKPSETLSITCTVSGFSLTNYGVHWIRQAPGKGLEWLGVIWSGGNTDYNTPFTSRFTITKDNSKNQVYFKLRSVRADDTAIYYCARALTYYDYEFAYWGQGTLVTVSSGGGGSGGGGSEVQLVESGGGLVQPGGSLRLSCAASGFTISTNAMSWVRQAPGKGLEWIGVITGRDITYYASWAKGRFTISRDNSKNTLYLQMNSLRAEDTAVYYCARDGGSSAITSNNIWGQGTLVTVSSASTKGPSVFPLAPSSKSTSGGTAALGCLVKDYFPEPVTVSWNSGALTSGVHTFPAVLQSSGLYSLSSVVTVPSSSLGTQTYICNVNHKPSNTKVDKRVEPKSCDKTHTCPPCPAPEAAGGPSVFLFPPKPKDTLMISRTPEVTCVVVDVSHEDPEVKFNWYVDGVEVHNAKTKPREEQYNSTYRVVSVLTVLHQDWLNGKEYKCAVSNKALPAPIEKTISKAKGQPREPQVYTLPPSRDELTKNQVSLSCAVKGFYPSDIAVEWESNGQPENNYKTTPPVLDSDGSFFLVSKLTVDKSRWQQGNVFSCSVMHEALHNHYTQKSLSLSPGGGGGSGGGGSDVVMTQSPSSVSASVGDRVTITCQASQNIRTYLSWYQQKPGKAPKLLIYAAANLASGVPSRFSGSGSGTDFTLTISDLEPGDAATYYCQSTYLGTDYVGGAFGGGTKLTVLGGGGSGGGGSGGGGSGGGGSEVQLVESGGGLVQPGGSLRLSCTASGFTISSYHMQWVRQAPGKGLEYIGTISSGGNVYYASSARGRFTISRPSSKNTVDLQMNSLRAEDTAVYYCARDSGYSDPMWGQGTLVTVSS chain 2: ENVLTQSPASLSASPGERVTITCSASSSVSYMHWYQQKPGQAPKLWIYDTSKLASGVPSRFSGSGSGNDHTLTISSMEPEDFATYYCFQGSVYPFTFGQGTKVTVLGGGGSGGGGSGGGGSGGGGSQVTLKESGPGLVQPGQTLSLTCAFSGFSLSTSGMGVGWIRQPPGKGLEWLAHIWWDDDKRYNPALKSRLTISKDTSKNQVYLQMNSLDAEDTAVYYCARMELWSYYFDYWGQGTLVTVSSGGGGSGGGGSDVVMTQSPSTLSASVGDRVTINCQASESISSWLAWYQQKPGKAPKLLIYEASKLASGVPSRFSGSGSGTEFTLTISSLQPDDFATYYCQGYFYFISRTYVNSFGGGTKVEIKRTVAAPSVFIFPPSDEQLKSGTASVVCLLNNFYPREAKVQWKVDNALQSGNSQESVTEQDSKDSTYSLSSTLTLSKADYEKHKVYACEVTHQGLSSPVTKSFNRGECGGDKTHTCPPCPAPEAAGGPSVFLFPPKPKDTLMISRTPEVTCVVVDVSHEDPEVKFNWYVDGVEVHNAKTKPREEQYNSTYRVVSVLTVLHQDWLNGKEYKCAVSNKALPAPIEKTISKAKGQPREPQVYTLPPSRDELTKNQVSLWCLVKGFYPSDIAVEWESNGQPENNYKTTPPVLDSDGSFFLYSKLTVDKSRWQQGNVFSCSVMHEALHNRFTQKSLSLSPGGGGGSGGGGSDIQMTQSPSTLSASVGDRVTITCQASQSISSHLNWYQQKPGKAPKLLIYKASTLASGVPSRFSGSGSGTEFTLTISSLQPDDFATYYCQQGYSWGNVDNVFGGGTKVTVLGGGGSGGGGSGGGGSGGGGSEVQLLESGGGLVQPGGSLSLSCAASGFSFSSGYDMCWVRQAPGKGLEWIACIAAGSAGITYDANWAKGRFTISRDNSKNTLYLQMNSLRAEDTAVYYCARSAFSFDYAMDLWGQGTLVTVSS | 4.33 | 1.04 | 14.8 | 25.9
